The record followed here is the nanobody polyreactivity screen of Harvey et al. (2022).

The nature of this data set: yeast display, Sf9 membrane polyspecificity reagent, FACS + sequencing; frameworks hold sequencing errors. The method in brief: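 Genes from sorted yeast were amplified by colony PCR, read by MiSeq 2 × 250 sequencing and filtered on CDR length. These cells carried a synthetic nanobody library in Saccharomyces cerevisiae BJ5465 and were sorted by FACS into low and high (top ~1%) gates on anti-HA and streptavidin fluorescence. Polyreactivity is labelled according to the gate of origin.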
As to “QVQLVESGGGLVQAGGSLRLSCAASGSTFYTNVMGWYRQAPGKDRELVAAISYNSGSTSYADSVKGRFTISRDNAKNTVYLQMNSLKPEDTAVYYCAVRIRLRRARLSYDYWGQGTQVTVSS”, the “polyreactivity (PSR sort gate)” value is recorded as “high polyreactivity”. The entry for “QVQLVESGGGLVQAGGSLRLTCAASGSIFFQNAMGWYRQAPGKERELVATITSSVGSTYYADSVKGRFTISRDNAKNTVYFQMNSLKPEDTAVYYCNVRVFSAALWYTYFGYDYWGQGTQVTVSS” is “low polyreactivity”; for “QVQLVESGGGLVQAGGSLRLSCAAYGSIFSTYAMGWYRQAPGKERELVAAISRSGGSTYYADSVKGRFTISRDNAKNTVYLQMNSLKPEDTAVYYCAKVGRRQRYDYWGQGTQVTVSS” it is “high polyreactivity”; for “QVQLVESGGGLVQAGGSLRLSCAASGFTFKFYAMGWYRQAPGKERELVAAISWSGGSTYYADSVKGRFTISRDNAKNTVYLQMNSLKPEDTAVYYFAKRGGRQTYYYWGLGTQVTVSS” it is “high polyreactivity”.

As for “QVQLVDSGGGLVQAGGILRLSCPASGLIIRKNAMGWYRQAPGKERELVAAISYNGASTYYADSVKGRFTISRDNAKNTVYLQMNSLKPEDTAVYYCAAYAGYSDQARYYYWGQGTQVTVSS”, the “polyreactivity (PSR sort gate)” value is “high polyreactivity”. The result for “QQLQESGGGLVQAGGSLRLSCAASGSISGSVLMGWYRQAPGKEREFVASISLGGNTNYADSVKGRFTISRENAKNTVYLQMNSLKPEVAAVYYCAAYISLFETHPYWGQGTQVTVSS” reads “high polyreactivity”; that for “QVQLVESGGGLVQAGGSLRLSSAASGRTFRWYTMGWYRQAPGKERELVAAISYSGGRTYYADSVKGRFTISRDNAKNTVYLQMNSLKPEDTAVYYCNKRGPSYWRYVETSEYYYWGQGTQVTVSS”, “high polyreactivity”. As for “QVQLVESGVGLVQAGGSLRLSCAASGRIFRTYAMGWYRQAPGKERELVAAITSGGGSTYYADSVKGRFTISRDNAKNTVYLQMNSLKPEDTAVYYCAARPGIRSYPPGYGYWGQGTQVTVSS”, the “polyreactivity (PSR sort gate)” value is recorded as “high polyreactivity”. “QVQLVESGGCLVQAGGSLRLRCAASGPNFPGYTKGWYRHAPRKAREFVAAISYSGGSTYADSVKGRFTISRDNAKNTVYLQMNSLKPEDTSVYYCAVFLQHWLDMYYWGQGTQVNVSS”: the “polyreactivity (PSR sort gate)” value is reported as “low polyreactivity”. As to “QVQLVESGGGLVQAGGSLRLSCAASGFNFNKNAMGWYRQAPGKERELVAAISGTGGSTYYADSVKVRFTISRDNAKNTVYLQMNSLKPEDTAVYFCASRRYRQFSTGGQPGYYWGQGTLVTVSS”, the “polyreactivity (PSR sort gate)” value is listed as “high polyreactivity”. The result for “KVQLVESRGGLVQAGGSLRLSCAASGRTFIRYAMGWYRQAHGKEREFVAAITWSGGSTYYADSVKGRFTISRDNAKNTVYLQMNSLKPEDTAVYYCAKYPAARAVDYWGQGSQVTVSS” reads “high polyreactivity”; that for “QVQLVESGGGLVQAGGSLRLSCAASGSTFYTYAMGWYRQAPGKERELVAAITSSGTTNYADSVKGRFTISRDNAKNTVYLQMNSLKPEDTAVYYCAKRSYGGTLHYAFDSWGQGTQVTVSS”, “low polyreactivity”. “QVQLVESGGGLVQAGGSLRLSCAASGSTFVFNAMGWYRQAPGKERELVARITTGGSTHYADSVKGRFTISRDNAKNTVYLQMNSLKPEDTAVYYCNTGPYTFDSPEYYYWGQGTQVTVSS”: the “polyreactivity (PSR sort gate)” value was “low polyreactivity”. With “QVQLVESGGGLVQAGGSLRLSCAASGFTFRVYAMGWYRQAPGKERELVAAISKSGGSTYYADSVKGRFTISRDNAKNTVYLQMNSLKPEDTAVYYCAKVSQVRGFYYWGQGTQVTVSS”, the “polyreactivity (PSR sort gate)” value is “high polyreactivity”.

Take “QVQLVESGGGLVQAGGSLRLSCAASGSIFFRYAMGWYRQATGKERELVARISWGGGRTYYADSVKGRFTISRDNAKNTVYLQMNSLKPEDTAVYYCNRAYWVNPGGFEYWGQGTQVTVSS”: the “polyreactivity (PSR sort gate)” value was “high polyreactivity”. Regarding “QVQLVESGGGLVQAGGSLRLSCAASGSIFGPYAMGWYRQAPGKERELVAANTWTGGRTYYSDSVKGRFTISRDNAKNTVYLQMNSLKPEDTAVYYCAVRHRYTRAYWGRDYWGQGTQVTVSS”, the “polyreactivity (PSR sort gate)” value was “low polyreactivity”. With “QVQLVESGGRLVQAGGSIRLSCAASGRIFTDNAMGWYRQAPGKERELVAAISWDGSSTSYADSVKGRFTISRDNAKNTVYLQMNSLQPEDTAVYYCAASGVGTNHYGYWNESDYWGQGTQVTVSS”, the “polyreactivity (PSR sort gate)” value is reported as “low polyreactivity”. Take “QVQLVESGGGLVQAGGSLRLSCAASGSIFYRNAMGWYRQAPGNERELVAAITSGASTYYADSVKGRFTISRDNAKNTVYLQMNSLKPEDTEVYYCAADSDSQWGMDYWGQGTQVTVSS”: the “polyreactivity (PSR sort gate)” value is “low polyreactivity”. In the case of “QVQLVESGGGLVQAGGSLRLSCAASGFTFWYYAMGWYRQAPGKERELVATISRGGGSTYYADSVKGRFTISRDNAKNTVYLQMNSLKPEDTEVYYCNAVRVHAYSTGEYGYWGQGTQVTVSS”, the “polyreactivity (PSR sort gate)” value is recorded as “high polyreactivity”. For “QVQLVESGGGLVQAGGSLRLICAASGSTQVYYAMGWYRQAPGKETELVASINHSGARTRYADSVKGRFTISRDNAKNTVYLQMNSLKPEVTAVYYCAAVARSTTYRYNYWGQGTQVTVSS”, the “polyreactivity (PSR sort gate)” value was “high polyreactivity”.

Consider “QVQLVESGGGLFQAGGSLRLSCAASGSTFKRYAMGWYRQAPGKERELVAAITLSGGNTYYADSVKGRFTISRYNAKNTVYLQMNSLKPEDTAVYYCAARRYRGYDYWGQGTQVTVSS”, for which the “polyreactivity (PSR sort gate)” value is recorded as “high polyreactivity”. Turning to “QVHLVESGGGLVQAGGSLRLSCAASGSTFVYNTMGWYRQAHGKERELVASISSDGNTDYADSVKGRFTISRDNAKNTVYVQMNSLKPEDTAVYYCAARYYYDWRFVGYDYWGQGTQVTVSS”, the “polyreactivity (PSR sort gate)” value is reported as “low polyreactivity”.

On to “QDQLVESGGGLVQAGGRLRLSCAASGLMFYYYAMGWYIQAPGKEREFVAAISRSGGITRYADSVKGRFTISRDNAKNTVYLQMNRLKPEDTAVYYCAAAVGSVRYDYWGQGTQVTVSS”, for which the “polyreactivity (PSR sort gate)” value was “high polyreactivity”.

Take “QVQLVESGGGLVQAGGSLRLSCAASGFIFFYYAMGWYRQAPGKERELVAAITRGGSTNYADSVKGRFTISRDNAKNTVYLQMNRLKPEDTAVYYCNKQYGRRHYWGDDYYWGQGTQVTVSS”: the “polyreactivity (PSR sort gate)” value was “low polyreactivity”.

In the case of “QVQLVESGGGLVQAGGSLRLSCAASGRTFYYYTMGWYRQAPGQERELVAAISVSGGTTYYADSVKGRFTISRDNAKYSVYLQMNSLKPDDTAVYYCAAGDGWGRRYYWGQGTQVNVSS”, the “polyreactivity (PSR sort gate)” value was “high polyreactivity”.

On to “QVQLVESGGGLVQAGGSLRLSCDASGRIFNYYAMGWYRQAPGKERELVAAITWNGGNTYYADSVKGRFTISRDNAKNTVYLQMNSLKPEDTAVYYCNAYPWYPGDYWGQGTQVTVSS”, for which the “polyreactivity (PSR sort gate)” value is given as “high polyreactivity”. For the sequence “QVQLVESGGGLVQAGGSLRLSCDASGNTFSRYAMGWYRQAHGKERELVAAITSSGGSTYYADSVKGRFTISRDNAKNTVYLQMNSLKPEDTAVYYCAATSYYTREHYYYWGQGTQVTVSS”, the “polyreactivity (PSR sort gate)” value is recorded as “high polyreactivity”. In the case of “QVQLVESGGGLVQAGGSLRLSWAASGNTFYGYAMGWYRQAPGKERELVAGIRWSGGSTSYADSVKGRFTISRDNAKNTVYLQMNSLKTEDTAVYYCAAGWYPWGYYSGYISYEYWGQGTQVTVSS”, the “polyreactivity (PSR sort gate)” value is “high polyreactivity”. For the sequence “QVQLVESGGGLVQAGGSLRLSCAASGSTFQWNAMGWYRQAPGKERELVASITDSGGRTYYADSVKGRFTISRDNAKNTVYLQMNSLKPEDTAVYYCAAVSLWWSDYYFVEYDYWGQGTQVTVSS”, the “polyreactivity (PSR sort gate)” value was “high polyreactivity”.

Regarding “QVQLVESGGGLVQAGGSLRLSCAASGIIFDFYTMGWYRQAPGKERELVAAINSSGGSTYYADSVKGRFTISRDNAMNTVYLHMNSLKPADTAVYYCNAEYLFFWGQYDYWGQGTQVTVSS”, the “polyreactivity (PSR sort gate)” value is “high polyreactivity”. As for “QVQLVESGGGLVQAGGSLRVSCASSGRTFSRNAMGWYRQAPGKEMELVATISRRGGSTNYADSVKGRFTISRDNAKNTVYLQMNSMKQEDTAVYYCAAGYRVRDDKVYGIVGPMDYWGQGTQVNVSS”, the “polyreactivity (PSR sort gate)” value is reported as “high polyreactivity”.

Regarding “QVQLVESGGGLVQAGGSLRLSCAASGRIFFYYVMGWYRQAPGKERELVAAITRSGGSTYYADSVKGRFTISRDNAKNTVYLQMNSLKPEDTAVYYCAVGDGFEYDWGQGTQVTVSS”, the “polyreactivity (PSR sort gate)” value is listed as “low polyreactivity”. The entry for “QVQLVESGGGLVQAGGSLRLSCAASGSILDSNAMGWYRQAPGKERELVAAITSGGSTYYADSVKGRFTISRDNAKNTVYLQMNSLKPEETAVYYCAAAYLGYGAVQPSYEGGYWGQGTQVTVSS” is “low polyreactivity”; for “QVQLVESGGGLVQAGGSLRLSCAASGRIFDPYAMGGYRQAPGKERELVANITLRGGITYYADSVKGRFTISRDNAKNTVYLQMNSLKPEDTAVYDCNADGYPDVGAGTYGYWGQGTQVTVSS” it is “low polyreactivity”. Take “QVQLVESGGGLVQAGGSLRISCAASGSIFGYYVMGWYRQAPGKERELVAAITGSVGDTYYADSVKGRFTISRDNAKNTVYLQMNSLKPVDTAVYYCNASNISPFRLLRSPMDYCGQGTQVTVSS”: the “polyreactivity (PSR sort gate)” value is reported as “low polyreactivity”.

For the sequence “QVLLVESGGGLVQAGGSLRLSCSASGSTSRFYAMGWSRQEPGKERELVAAINKSGTRTYYADSVKGRFTISRDNAKNTVYLQMNSLKPEDTAVYYCAADQGTYGYGGFYYWGLGTQVTVSS”, the “polyreactivity (PSR sort gate)” value is “high polyreactivity”. Turning to “QVQLVESGGGLVQAGGSLRLSCAASGSIFLVNDMGWYRQAPGKERELVAAISYSGDSTYYADSVKGRFTISRDNAKNTVYLQMNSLKPEDTAVYYCAADVFIISYVAAWHVRIDEFEWGQGTQVTVSS”, the “polyreactivity (PSR sort gate)” value is listed as “low polyreactivity”.

For “QVQLVESGGGLVQAGGSLRLSCAASVYAMGWYRQAPGKERELVAAITDSGSTNYADSVKGRFTISRDNAKNTVYLQMNSLKPEDNAVYYCNADPYYATGSWARLPLYQYDYWGQGTQVTVSS”, the “polyreactivity (PSR sort gate)” value was “low polyreactivity”. On to “QVQLVESGGGLVQAGGSLRLSCAASGSIFPLYAMGWSRQAPGKERELVAAITWRGGSTYYADSVKGRFTITRDNAKNTVYLQMNSLKPEDTAVYYCNRDLVPRFDYWGQGTQVTVSS”, for which the “polyreactivity (PSR sort gate)” value is on record as “low polyreactivity”. “QVQLVESGGGLVQAGGSLRLSCAASGFTFWSYAMGWYRPAPGKERELVAAISRGGSTSYADSVKGRFTISRDNAKNTVYLLMNSLKPEDTAVYYCAALRPYRNDKGDYWGQGTQVTVSS”: the “polyreactivity (PSR sort gate)” value is on record as “high polyreactivity”.
